# Results: patent publication US20240383950A1, “RECOMBINANT GLYCAN BINDING PROTEINS AND ITS USE” (UNICHEM LABORATORIES LIMITED, priority 2021, published 2024)
# B1: SEQ ID NO. 3: SEQ ID NO. 2 re-engineered: Serine at 1st position, Glycine at 76th position, Cysteine added at carboxy terminal end (protein)
# chain: SYKITVRVYQTNPDAFFHPVEKTVWKYANGGTWTITDDQHVLTMGGSGTSGTLRFHADNGESFTATFGVHNYKRWGDIVTNLAADETGMVINQQYYSQKNREEARERQLSNYQVKNAKGRNFQIVYTEAEGNDLHANLIIGC
# B2: Conjugate of Example 8: Protein of SEQ ID NO. 3 conjugated to cytotoxic drug MMAE using MC-Val-Cit-PAB-MMAE; DAR value 1.0 (conjugate)
# chain: B1 chain
# modifications: MC-Val-Cit-PAB-MMAE conjugate, DAR 1.0
# notes: DAR value 1.0
# B3: SEQ ID NO. 2: recombinant glycan binding protein, variant of Sclerotium Rolfsii Lectin, disclosed in Indian Patent Application 350/MUM/2009 (protein)
# chain: TYKITVRVYQTNPDAFFHPVEKTVWKYANGGTWTITDDQHVLTMGGSGTSGTLRFHADNGESFTATFGVHNYKRWCDIVTNLAADETGMVINQQYYSQKNREEARERQLSNYQVKNAKGRNFQIVYTEAEGNDLHANLIIG
# B4: SEQ ID NO. 4: SEQ ID NO. 2 re-engineered: Serine at 1st, Glycine at 76th, Serine added at 142nd and Cysteine at 143rd position (protein)
# chain: SYKITVRVYQTNPDAFFHPVEKTVWKYANGGTWTITDDQHVLTMGGSGTSGTLRFHADNGESFTATFGVHNYKRWGDIVTNLAADETGMVINQQYYSQKNREEARERQLSNYQVKNAKGRNFQIVYTEAEGNDLHANLIIGSC
# Assays:
# [1] = system: Ovarian Cancer cell line PA-1; experiment: MTS-PMS cytotoxicity bioassay, PA-1; details: 80 μg/ml; 5000 cells/well
# Excerpt: 5000 cells/well were used for testing.
# (§5) The drug Doxorubicin was used as system suitability (SST) reference.
# [2] = Stability of expressed protein in TBS buffer; type: physicochemical; details: for % Single max impurity / % Total impurity / % purity: 10 mM TBS buffer pH 7.8, 2-8° C.
# Procedure: Stability of expressed protein i.e., SEQ ID NO. 3 was evaluated for 2 weeks using 10 mM TBS buffer with pH 7.8 at 2-8° C.
# [3] = system: Blood cancer cellline Jurkat E6; experiment: MTS-PMS cytotoxicity bioassay, Jurkat E6; details: 80 μg/ml; 5000 cells/well
# Excerpt: 5000 cells/well were used for testing.
# as §5
# pI of purified protein = type: physicochemical
# Excerpt: The molecular mass and pI of purified protein of SEQ ID NO. 3 and SEQ ID NO.
# [4] = system: Blood Cancer Cellline MOLT-3; experiment: MTS-PMS cytotoxicity bioassay, MOLT-3; details: 80 μg/ml; 5000 cells/well
# Excerpt: 5000 cells/well were used for testing.
# as §5
# [5] = system: ovarian cancer cell line (PA-1); experiment: Cytotoxicity bioassay of conjugate, PA-1; type: cell-based; details: 72 hours; Cell titer glow
# Procedure: (§1) Bioassay—Cytotoxicity effect Conjugate of Example 8 against ovarian cancer cell line (PA-1) and human urinary Bladder cancer cell line (T-24) was assayed.
# (§2) 5,000 cells/well were plated and incubated at 37° C. overnight.
# (§3) Conjugates/vehicle control dilutions were made in respective media and added to cells. Volume added: 50 uL to each well. […] Each concentration was analysed in triplicates. Media-only wells was used as a control to calculate percent viability. Cell titer glow reagent (volume: 50 uL) was added to each well, the plate was shaken for 5 mins and the luminescence was recorded. Drug Treatment Time: 72 hours. Percent viability was calculated by dividing the luminescence signal obtained for each treated well by the untreated well (media-only control) and multiplying by 100.
# (§4) Data was next transformed using X=Log(x) and then analysed with nonlinear regression (curve fit), Dose Response inhibition−log (inhibitor) vs response (3 parameters) using PRISM software to determine the IC50 value.
# [6] = system: human urinary Bladder cancer cell line (T-24); experiment: Cytotoxicity bioassay of conjugate, T-24; type: cell-based; details: 72 hours; Cell titer glow
# Procedure: as §1, §2, §3, §4
# [7] = Glycan binding study, N-Glycan array
# [8] = Glycan binding study, O-Glycan array, core 2; details: O-Glycan array containing 94 glycans
# [9] = system: bladder cancer cells (T24); experiment: Colocalization study in cell organelles by confocal microscopy; type: cell-based; details: FITC-labelled, 100 μg/mL, 2 h, 37° C.
molecule,measurement,setting,value
B1,% Cytotoxicity on Cell-lines PA-1,[1],82%
same,% Single max impurity,[2]; 0 Week,1.31%
same,% Total impurity,[2]; 0 Week,1.95%
same,% purity,[2]; 0 Week,98.05%
same,% Single max impurity,[2]; 1 Week,0.98%
same,% Total impurity,[2]; 1 Week,2.66%
same,% purity,[2]; 1 Week,97.34%
same,% Single max impurity,[2]; 2 Week,0.86%
same,% Total impurity,[2]; 2 Week,2.91%
same,% purity,[2]; 2 Week,97.09%
same,stability,"[2]; 2 weeks, 10 mM TBS buffer with pH 7.8 at 2-8° C.",stable
same,% Cytotoxicity on Cell-lines Jurkat E6,[3],68%
same,pI,pI of purified protein,6.49
same,% Cytotoxicity on Cell-lines MOLT-3,[4],43%
B2,IC50,[5],17.7 nM
same,IC50,[6],325 nM
B3,% Cytotoxicity on Cell-lines PA-1,[1],81%
same,Estimated Kd for T antigen,O-Glycan array containing 94 glycans,0.319 µg/mL
same,binding profile to O-glycans,"O-Glycan array, T-antigen and its extended core structures",strong and broad binding profile to O-glycans
same,binding to N-glycans,[7],specific binding to N-glycans containing GlcNac at the non-reducing end
same,% Cytotoxicity on Cell-lines Jurkat E6,[3],61%
same,Estimated Kd for core 2,[8],0.212 µg/mL
same,colocalization in cell organelles,[9],"colocalized in Mitochondria, Endoplasmic reticulum, Golgi bodies and Plasma membrane"
same,% Cytotoxicity on Cell-lines MOLT-3,[4],46%
B4,pI,pI of purified protein,6.49
